From IntAct's records for PubMed 17003112

B1: Nuclear factor NF-kappa-B p105 subunit (Homo sapiens), P19838 (parent)
chain: MAEDDPYLGRPEQMFHLDPSLTHTIFNPEVFQPQMALPTDGPYLQILEQPKQRGFRFRYVCEGPSHGGLPGASSEKNKKSYPQVKICNYVGPAKVIVQLVTNGKNIHLHAHSLVGKHCEDGICTVTAGPKDMVVGFANLGILHVTKKKVFETLEARMTEACIRGYNPGLLVHPDLAYLQAEGGGDRQLGDREKELIRQAALQQTKEMDLSVVRLMFTAFLPDSTGSFTRRLEPVVSDAIYDSKAPNASNLKIVRMDRTAGCVTGGEEIYLLCDKVQKDDIQIRFYEEEENGGVWEGFGDFSPTDVHRQFAIVFKTPKYKDINITKPASVFVQLRRKSDLETSEPKPFLYYPEIKDKEEVQRKRQKLMPNFSDSFGGGSGAGAGGGGMFGSGGGGGGTGSTGPGYSFPHYGFPTYGGITFHPGTTKSNAGMKHGTMDTESKKDPEGCDKSDDKNTVNLFGKVIETTEQDQEPSEATVGNGEVTLTYATGTKEESAGVQDNLFLEKAMQLAKRHANALFDYAVTGDVKMLLAVQRHLTAVQDENGDSVLHLAIIHLHSQLVRDLLEVTSGLISDDIINMRNDLYQTPLHLAVITKQEDVVEDLLRAGADLSLLDRLGNSVLHLAAKEGHDKVLSILLKHKKAALLLDHPNGDGLNAIHLAMMSNSLPCLLLLVAAGADVNAQEQKSGRTALHLAVEHDNISLAGCLLLEGDAHVDSTTYDGTTPLHIAAGRGSTRLAALLKAAGADPLVENFEPLYDLDDSWENAGEDEGVVPGTTPLDMATSWQVFDILNGKPYEPEFTSDDLLAQGDMKQLAEDVKLQLYKLLEIPDPDKNWATLAQKLGLGILNNAFRLSPAPSKTLMDNYEVSGGTVRELVEALRQMGYTEAIEVIQAASSPVKTTSQAHSLPLSPASTRQQIDELRDSDSVCDSGVETSFRKLSFTESLTSGASLLTLNKMPHDYGQEGPLEGKI

Variants of: B1
Details: with hif1n_human HIF1AN

Row | effect of a mutation on the interaction | Variant
1 | disrupting interaction strength | N678A
